# Target: hMutSα (hMSH2-hMSH6), wild type (human, UniProt P43246 1-934; P52701 1-1360)
# Assay: pull-down
binder,measurement,value
ARKSAPATGGVKKPHRYRP (dimethyl-lysine at K36; biotin (position not given)) [biotin-labeled histone H3 peptide with di-methylated K36],binding result,binds

# — PMC3641580 (Cell, 2013)
